These results are taken from patent US20110311507.

Numbering of substitutions follows the chain as printed. Names may count otherwise.

Series [1] deals with T1, V5-tagged wild type murine Siae (UniProt P70665).
T1 sequence: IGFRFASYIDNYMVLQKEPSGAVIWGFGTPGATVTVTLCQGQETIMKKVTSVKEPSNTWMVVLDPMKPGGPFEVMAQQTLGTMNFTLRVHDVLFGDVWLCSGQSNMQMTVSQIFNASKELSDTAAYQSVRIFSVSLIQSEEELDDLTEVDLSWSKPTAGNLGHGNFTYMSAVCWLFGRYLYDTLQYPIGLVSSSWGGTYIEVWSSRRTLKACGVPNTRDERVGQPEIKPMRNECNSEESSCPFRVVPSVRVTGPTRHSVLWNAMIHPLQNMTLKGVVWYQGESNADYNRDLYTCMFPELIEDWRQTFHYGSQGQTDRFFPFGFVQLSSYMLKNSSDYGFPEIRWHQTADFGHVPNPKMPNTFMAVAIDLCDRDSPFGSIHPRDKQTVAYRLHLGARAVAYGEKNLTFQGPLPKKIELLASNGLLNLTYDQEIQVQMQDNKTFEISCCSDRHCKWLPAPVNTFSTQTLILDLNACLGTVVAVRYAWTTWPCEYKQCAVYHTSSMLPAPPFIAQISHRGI

In series [2] the target is T2, V5-tagged wild type murine Siae, P70665.
T2 chain: T1 sequence

As to FLAG-tagged K426N Siae, the “enzyme activity of V5-tagged WT Siae in co-transfectants, as a function of its protein level” value in series [1] is given as “lacks dominant negative activity”. For FLAG-tagged murine F430S Siae, the “enzyme activity of V5-tagged wild type Siae in co-transfectants, as a function of its protein level” value in series [1] is “function in a dominant interfering fashion”. As to FLAG-tagged murine Q335P SIAE, in series [1], the “enzyme activity of V5 tagged wild type SIAE in co-transfectants, as a function of its protein level” value is given as “function in a dominant interfering fashion”. As for FLAG-tagged murine R505C Siae, in series [1], the “enzyme activity of V5-tagged wild type Siae in co-transfectants, as a function of its protein level” value was “function in a dominant interfering fashion”. For FLAG-tagged murine T338M SIAE, in series [1], the “enzyme activity of V5 tagged wild type SIAE in co-transfectants, as a function of its protein level” value is on record as “function in a dominant interfering fashion”. As for FLAG-tagged murine Y375C Siae, the “enzyme activity of V5-tagged wild type Siae in co-transfectants, as a function of its protein level” value in series [1] is recorded as “function in a dominant interfering fashion”.

B1: FLAG-tagged murine C196F SIAE (protein)
chain: T1 sequence with C173F
For B1, in series [2], the “enzyme activity of V5 tagged wild type SIAE in co-transfectants, as a function of its protein level” value is reported as “function in a dominant interfering fashion”.

B2: FLAG-tagged murine G212R Siae (protein)
chain: T1 sequence with G189R
Regarding B2, the “enzyme activity of V5-tagged wild type Siae in co-transfectants, as a function of its protein level” value in series [2] was “function in a dominant interfering fashion”.
